From US20240168030A1, “DIRECT FLUORESCENT GLYCAN LABELING” (BIO-TECHNE CORPORATION, priority 2019, published 2024) come the findings set out here.

Common to all, as to format: biochemical
Data set [1] is described as follows: Enzymatic synthesis of Le^x and sLe^x by glycan gel electrophoresis, substrate G0. As to the method:
(§1) FIG. 21A. Schematic view of the enzymatic steps for Le^X and sLe^X synthesis on the antibody glycan G0. The glycan short names follow that of FIG. 10. FIG. 21B Kinetic comparison of galactosylation on G0 by B4GalT1, sialyation on G2 by ST3Gal4 and ST6Gal1, and fucosylation on A2[3] by FUT7. The reaction time for B4GalT1 was 10 minutes. The reaction time for ST3Gal4, FUT7 and ST6Gal1 was 5 hours. In each case, the labeling enzyme was subject to a 3-fold serial dilution starting from 1 μg each of B4GalT1, FUT7 and ST6Gal1, and 3 μg ST3Gal4. FIG. 21C. […] Reaction time for both cases was 20 minutes. […] FIG. 21D. […] Reaction time for both cases was 20 minutes.
(§2) For a typical labeling reaction, 1 μg to 5 μg target protein was mixed with 0.2 nmol fluorophore-conjugated GDP-fucose and 0.2 μg of a fucosyltransferase in 30μL 25 mM Tris pH 7.5, 10 mM MnCl2. The mixture was incubated at 37° C. for 30 minutes. […] To release labeled glycans from a glycoprotein, the sample was first denatured by heating at 95° C. for two minutes in the presence of 0.5% SDS and 80 mM β-mercaptoethanol and then renatured with 1% Triton X-100, and finally treated with PNGase F at 10:1 mass ratio at 37° C. for 20 minutes. To release glycans from antibody, a sample was directly treated with Endo S at 10:1 mass ratio at 37° C. for 20 minutes. All samples were separated by sodium dodecyl sulfate—polyacrylamide gel electrophoresis (SDS-PAGE) at […]. For separating labeled glycoproteins and antibodies, 4-20% gradient SDS gel was used. For separating labeled free glycans, 15% or 17% gel was used. After separation, all gels were imaged using a FluorChem M imager (ProteinSimple, Bio-Techne, Minneapolis, MN). For glycoproteins samples, the gel was also imaged with traditional methods such as silver staining or trichloroethanol (TCE) staining.
(§3) For sLe^x synthesis, G0 was first converted to G2 by B4GalT1, then converted to A2[3] by ST3Gal4, and finally converted to A2[3]F2 (carrier of sLe^x) by FUT7 (FIG. 21A). […]

Data set [2] is described as follows: Le^a synthesis from FUT8-labeled G0 (G0f) quantified with response curve. The note with it: for Completion of reaction in Le^a synthesis: FIG. 22B. As to the method:
FIG. 22A-FIG. 22C show quantification of Le^a and its intermediate products. […] Lane 1 is labeled G0 (G0f) and lane 2 is labeled G2 (G2f). Lane 3 to 5 contain the intermediate reactions of converting G0f to the final Le^a carrying glycan A1 G1[3]F1f with the indicated enzymes. Lane 6 to lane 13 is a 2-fold serial dilution of G0f starting from 25 ng (19 pmol). The exposure time is 240 ms. The mass inputs of the serial dilution and all the band intensities were listed below the picture. FIG. 22C. The response curve of the serial dilution in FIG. 22B. The slope of the line represents the signal to mass ratio of G0f, which allows the quantification of the bands from lanes 1 to 5.
To evaluate the quantitative aspects of the glycan electrophoresis described in this article, a series of enzymatic reactions towards Le^a synthesis were run along with a 2-fold serial dilution of the FUT8-labeled antibody glycan G0 (G0f) (FIG. 22). Le^a was synthesized from G0f sequentially via the steps of galactosylation by B3GalT2, sialylation by ST3Gal3 and fucosylation by FUT3 (FIG. 22A). Major intermediate products of Le^a synthesis including G1[3]f, A1G1[3]f and A1 G1[3]F1f were observed (FIG. 22B). When the band intensities of the serial dilution of G0f in FIG. 22B were plotted against the masses of the glycan, a response curve with the linear coefficient of 0.9998 was obtained, with the slope of the curve representing the signal to mass ratio (FIG. 22C). The masses of the intermediates of Le^a synthesis were then calculated using the signal to mass ratio. […] In addition, the results also indicate that the sensitivity of the current method for glycan detection is below picomole level.

The subject of data set [3] is fetal bovine fetuin and asialofetuin. Briefly: Labeling of fetuin and asialofetuin by fucosyltransferases with GDP-Cy5-Fuc. The note with it: GDP-Cy5-Fuc donor, FIG. 9A. As to the method:
FIG. 9A-FIG. 9B show exemplary results of probing substrate glycans of various fucosyltransferases on fetuin and asialofetuin. FIG. 9A. Probing substrate glycans of fucosyltransferases with guanosine 5′-diphosphate activated Cy5 conjugated fucose (GDP-Cy5-Fuc). […] FUT9 labeled itself (indicated by an arrow in the gel). FIG. 9B. Tolerance of Alexa-Fluor®555 (555), Alexa-Fluor®488 (488), and Cy5 by the indicated fucosyltransferases. All reactions were incubated at 37° C. for 30 minutes and then separated on SDS-PAGE and imaged with silver staining (upper panels) and fluorescent imager (lower panels). M, molecular marker.
For a typical labeling reaction, 1 μg to 5 μg target protein was mixed with 0.2 nmol GDP-f-Fuc and 0.2 μg of a fucosyltransferase in 30 μL buffer of 25 mM Tris pH 7.5, 10 mM MnCl2. The mixture was incubated at 37° C. for 30 minutes. The reaction was then separated by sodium dodecyl sulfate—polyacrylamide gel electrophoresis (SDS-PAGE) and the gel was directly imaged using a fluorescent imager FluorChem M ProteinSimple, Bio-Techne, Minneapolis, MN), followed by imaging with traditional protein imaging methods such as silver staining or trichloroethanol (TCE) staining.
The labeled samples were then separated on SDS-PAGE, followed by traditional protein gel imaging and fluorescent imaging.

The nature of data set [4]: Enzymatic synthesis of sLe^x by glycan gel electrophoresis, substrate A2[3]. The note with it: for Activity based on reaction completion: completed product sLe^x. How it is done:
as §1, §2, §3

Data set [5] is described as follows: Enzymatic synthesis of Le^x and sLe^x by glycan gel electrophoresis, substrate G2. As to conditions: substrate G2, completed product Le^x. How it is done: as §1, §2
For sLe^x synthesis, G0 was first converted to G2 by B4GalT1, then converted to A2[3] by ST3Gal4, and finally converted to A2[3]F2 (carrier of sLe^x) by FUT7 (FIG. 21A). During these steps, different amounts of enzymes, and multiple reaction times were applied to reveal the intermediate products.
Intermediate products are signs for the progress of each enzymatic step.

Setting [6] is: band masses from signal to mass ratio, FIG. 22.

With β-1,4-Galactosyltransferase 1 [B4GalT1], in data set [1] (FIG. 21B), the “Time for the complete conversion of G0 to G2” value worked out at 10 min. The “Activity based on reaction completion” value in data set [1] (substrate G0, completed product G2) amounted to 2.3 pmol/min/µg. The Relative activity in data set [1] (substrate G0, product G2, normalized to FUT6 on sLe^x synthesis) amounted to 17.

B1: B3GalT2: galactosyltransferase used for galactosylation in Le^a synthesis (protein, UniProt O43825 1-422, looked up)
Beta-1,3-galactosyltransferase …: MLQWRRRHCCFAKMTWNAKRSLFRTHLIGVLSLVFLFAMFLFFNHHDWLPGRAGFKENPVTYTFRGFRSTKSETNHSSLRNIWKETVPQTLRPQTATNSNNTDLSPQGVTGLENTLSANGSIYNEKGTGHPNSYHFKYIINEPEKCQEKSPFLILLIAAEPGQIEARRAIRQTWGNESLAPGIQITRIFLLGLSIKLNGYLQRAILEESRQYHDIIQQEYLDTYYNLTIKTLMGMNWVATYCPHIPYVMKTDSDMFVNTEYLINKLLKPDLPPRHNYFTGYLMRGYAPNRNKDSKWYMPPDLYPSERYPVFCSGTGYVFSGDLAEKIFKVSLGIRRLHLEDVYVGICLAKLRIDPVPPPNEFVFNHWRVSYSSCKYSHLITSHQFQPSELIKYWNHLQQNKHNACANAAKEKAGRYRHRKLH
Take B1: in data set [2] (setting [6]), the “Share of G0f converted to G1[3]f” value is given as 53% and the “Share of G0f converted to G2[3]f” value is 9%.

B2: FUT7: α-3 fucosyltransferase strictly active on sialyllactosamine (protein, UniProt Q11130 1-342, looked up)
Alpha-(1,3)-fucosyltransferase …: MNNAGHGPTRRLRGLGVLAGVALLAALWLLWLLGSAPRGTPAPQPTITILVWHWPFTDQPPELPSDTCTRYGIARCHLSANRSLLASADAVVFHHRELQTRRSHLPLAQRPRGQPWVWASMESPSHTHGLSHLRGIFNWVLSYRRDSDIFVPYGRLEPHWGPSPPLPAKSRVAAWVVSNFQERQLRARLYRQLAPHLRVDVFGRANGRPLCASCLVPTVAQYRFYLSFENSQHRDYITEKFWRNALVAGTVPVVLGPPRATYEAFVPADAFVHVDDFGSARELAAFLTGMNESRYQRFFAWRDRLRVRLFTDWRERFCAICDRYPHLPRSQVYEDLEGWFQA
For B2, the “Which of fetuin and asialofetuin the fucosyltransferase labeled” value in data set [3] is listed as “labeled fetuin”. The “Activity based on reaction completion” value in data set [4] was found to be 0.38 pmol/min/µg. The molecule further gave a Relative activity in data set [4] (product sLe^x, normalized to FUT6 on sLe^x synthesis) of 2.8.

B3: FUT6: recombinant α-3 fucosyltransferase active on lactosamine and sialyllactosamine (protein, UniProt P51993 1-359, looked up)
4-galactosyl-N-acetylglucosami …: MDPLGPAKPQWSWRCCLTTLLFQLLMAVCFFSYLRVSQDDPTVYPNGSRFPDSTGTPAHSIPLILLWTWPFNKPIALPRCSEMVPGTADCNITADRKVYPQADAVIVHHREVMYNPSAQLPRSPRRQGQRWIWFSMESPSHCWQLKAMDGYFNLTMSYRSDSDIFTPYGWLEPWSGQPAHPPLNLSAKTELVAWAVSNWGPNSARVRYYQSLQAHLKVDVYGRSHKPLPQGTMMETLSRYKFYLAFENSLHPDYITEKLWRNALEAWAVPVVLGPSRSNYERFLPPDAFIHVDDFQSPKDLARYLQELDKDHARYLSYFRWRETLRPRSFSWALAFCKACWKLQEESRYQTRGIAAWFT
On to B3, for which, in data set [3], the “Which of fetuin and asialofetuin the fucosyltransferase labeled” value was “labeled both fetuin and asialofetuin”. Further, the “Activity based on reaction completion” value in data set [4] came out at 13.5 pmol/min/µg; in data set [5], 2.3 pmol/min/µg.

B4: FUT3: fucosyltransferase used for fucosylation in Le^a synthesis (protein, UniProt P21217 1-361, looked up)
3-galactosyl-N-acetylglucosami …: MDPLGAAKPQWPWRRCLAALLFQLLVAVCFFSYLRVSRDDATGSPRAPSGSSRQDTTPTRPTLLILLRTWPFHIPVALSRCSEMVPGTADCHITADRKVYPQADMVIVHHWDIMSNPKSRLPPSPRPQGQRWIWFNLEPPPNCQHLEALDRYFNLTMSYRSDSDIFTPYGWLEPWSGQPAHPPLNLSAKTELVAWAVSNWKPDSARVRYYQSLQAHLKVDVYGRSHKPLPKGTMMETLSRYKFYLAFENSLHPDYITEKLWRNALEAWAVPVVLGPSRSNYERFLPPDAFIHVDDFQSPKDLARYLQELDKDHARYLSYFRWRETLRPRSFSWALDFCKACWKLQQESRYQTVRSIAAWFT
With B4, the “Completion of reaction in Le^a synthesis” value in data set [2] was “almost completed”.

B5: ST3Gal3: recombinant human sialyltransferase that generates α2,3-sialylated N-glycans (protein, UniProt Q11203 1-375, looked up)
CMP-N-acetylneuraminate-beta-1 …: MGLLVFVRNLLLALCLFLVLGFLYYSAWKLHLLQWEEDSNSVVLSFDSAGQTLGSEYDRLGFLLNLDSKLPAELATKYANFSEGACKPGYASALMTAIFPRFSKPAPMFLDDSFRKWARIREFVPPFGIKGQDNLIKAILSVTKEYRLTPALDSLRCRRCIIVGNGGVLANKSLGSRIDDYDIVVRLNSAPVKGFEKDVGSKTTLRITYPEGAMQRPEQYERDSLFVLAGFKWQDFKWLKYIVYKERVSASDGFWKSVATRVPKEPPEIRILNPYFIQEAAFTLIGLPFNNGLMGRGNIPTLGSVAVTMALHGCDEVAVAGFGYDMSTPNAPLHYYETVRMAAIKESWTHNIQREKEFLRKLVKARVITDLSSGI
As for B5, the “Completion of reaction in Le^a synthesis” value in data set [2] is “almost completed”.
